Values of other authors in patent publication US8901073B2, “Compounds and their effects on feeding behaviour” (Imperial Innovations Limited, priority 2011, dated 2014).

Settings: endogenous PYY in circulation; cited from earlier work

Substance: endogenous PYY: peptide YY polypeptide, a hormone secreted into the blood by cells lining the lower small intestine and the colon
- half life: several minutes
